For one substance, PGE2 secretion in RAW cells results are on record in US20230255948A1.

Experiment [1] has as its target α9β1 integrin on mouse RAW macrophage cells (mouse) (UniProt B8JK39). As to the kind of experiment: cell-based or functional assay.
Experiment [2] addresses α4β1 integrin on mouse B16 melanoma cells and mouse RAW macrophage cells (mouse) (UniProt Q00651). As to the kind of experiment: cell-based or functional assay.

Chain of α4β1 integrin on mouse B16 melanoma cells and mouse RAW macrophage cells (mouse) (Q00651 41-1039, chain 1 of 2): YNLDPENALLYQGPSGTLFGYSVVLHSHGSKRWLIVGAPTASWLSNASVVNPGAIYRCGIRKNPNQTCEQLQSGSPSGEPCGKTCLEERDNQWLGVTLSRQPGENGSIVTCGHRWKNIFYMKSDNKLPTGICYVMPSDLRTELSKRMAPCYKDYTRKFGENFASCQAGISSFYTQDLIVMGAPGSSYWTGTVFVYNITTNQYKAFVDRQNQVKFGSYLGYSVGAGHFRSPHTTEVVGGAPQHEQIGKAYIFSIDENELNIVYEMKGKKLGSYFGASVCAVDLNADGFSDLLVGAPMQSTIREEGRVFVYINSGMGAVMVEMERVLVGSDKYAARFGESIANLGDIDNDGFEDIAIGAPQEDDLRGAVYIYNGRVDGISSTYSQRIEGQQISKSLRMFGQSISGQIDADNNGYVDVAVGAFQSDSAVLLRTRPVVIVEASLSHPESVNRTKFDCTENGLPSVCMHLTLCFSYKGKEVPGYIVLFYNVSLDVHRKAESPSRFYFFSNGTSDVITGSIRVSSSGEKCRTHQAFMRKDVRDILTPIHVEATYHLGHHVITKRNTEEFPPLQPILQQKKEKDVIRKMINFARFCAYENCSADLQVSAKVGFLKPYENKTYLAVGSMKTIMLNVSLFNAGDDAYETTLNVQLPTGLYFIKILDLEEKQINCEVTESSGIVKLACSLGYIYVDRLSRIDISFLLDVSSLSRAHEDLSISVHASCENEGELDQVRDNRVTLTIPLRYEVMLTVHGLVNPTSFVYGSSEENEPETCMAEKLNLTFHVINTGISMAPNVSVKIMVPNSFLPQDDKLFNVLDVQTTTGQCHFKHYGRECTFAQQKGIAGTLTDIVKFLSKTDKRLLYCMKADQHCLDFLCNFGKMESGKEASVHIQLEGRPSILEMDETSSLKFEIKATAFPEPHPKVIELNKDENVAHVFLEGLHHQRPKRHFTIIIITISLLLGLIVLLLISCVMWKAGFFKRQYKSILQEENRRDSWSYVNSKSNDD
Chain of α4β1 integrin on mouse B16 melanoma cells and mouse RAW macrophage cells (mouse) (P09055 21-798, chain 2 of 2, further chain): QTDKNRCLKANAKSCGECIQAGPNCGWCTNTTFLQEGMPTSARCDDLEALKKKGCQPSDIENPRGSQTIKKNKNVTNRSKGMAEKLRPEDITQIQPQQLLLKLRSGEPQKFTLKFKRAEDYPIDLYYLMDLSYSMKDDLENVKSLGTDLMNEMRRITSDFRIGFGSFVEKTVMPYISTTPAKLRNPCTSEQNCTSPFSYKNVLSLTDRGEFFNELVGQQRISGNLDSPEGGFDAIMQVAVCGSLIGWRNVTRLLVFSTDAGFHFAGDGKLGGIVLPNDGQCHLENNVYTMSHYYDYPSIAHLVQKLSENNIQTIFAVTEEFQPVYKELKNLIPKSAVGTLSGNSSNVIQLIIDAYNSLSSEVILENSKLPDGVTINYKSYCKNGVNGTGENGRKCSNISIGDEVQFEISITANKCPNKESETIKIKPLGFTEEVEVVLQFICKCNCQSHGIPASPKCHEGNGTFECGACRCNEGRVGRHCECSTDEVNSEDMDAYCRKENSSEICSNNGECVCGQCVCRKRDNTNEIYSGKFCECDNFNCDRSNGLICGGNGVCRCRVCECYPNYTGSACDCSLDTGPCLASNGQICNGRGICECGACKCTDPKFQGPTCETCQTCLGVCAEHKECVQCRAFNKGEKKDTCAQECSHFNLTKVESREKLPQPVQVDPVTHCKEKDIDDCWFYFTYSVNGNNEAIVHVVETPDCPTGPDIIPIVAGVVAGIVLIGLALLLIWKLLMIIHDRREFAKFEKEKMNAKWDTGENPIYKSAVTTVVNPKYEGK
Chain of α9β1 integrin on mouse RAW macrophage cells (mouse) (B8JK39 29-1036, chain 1 of 2): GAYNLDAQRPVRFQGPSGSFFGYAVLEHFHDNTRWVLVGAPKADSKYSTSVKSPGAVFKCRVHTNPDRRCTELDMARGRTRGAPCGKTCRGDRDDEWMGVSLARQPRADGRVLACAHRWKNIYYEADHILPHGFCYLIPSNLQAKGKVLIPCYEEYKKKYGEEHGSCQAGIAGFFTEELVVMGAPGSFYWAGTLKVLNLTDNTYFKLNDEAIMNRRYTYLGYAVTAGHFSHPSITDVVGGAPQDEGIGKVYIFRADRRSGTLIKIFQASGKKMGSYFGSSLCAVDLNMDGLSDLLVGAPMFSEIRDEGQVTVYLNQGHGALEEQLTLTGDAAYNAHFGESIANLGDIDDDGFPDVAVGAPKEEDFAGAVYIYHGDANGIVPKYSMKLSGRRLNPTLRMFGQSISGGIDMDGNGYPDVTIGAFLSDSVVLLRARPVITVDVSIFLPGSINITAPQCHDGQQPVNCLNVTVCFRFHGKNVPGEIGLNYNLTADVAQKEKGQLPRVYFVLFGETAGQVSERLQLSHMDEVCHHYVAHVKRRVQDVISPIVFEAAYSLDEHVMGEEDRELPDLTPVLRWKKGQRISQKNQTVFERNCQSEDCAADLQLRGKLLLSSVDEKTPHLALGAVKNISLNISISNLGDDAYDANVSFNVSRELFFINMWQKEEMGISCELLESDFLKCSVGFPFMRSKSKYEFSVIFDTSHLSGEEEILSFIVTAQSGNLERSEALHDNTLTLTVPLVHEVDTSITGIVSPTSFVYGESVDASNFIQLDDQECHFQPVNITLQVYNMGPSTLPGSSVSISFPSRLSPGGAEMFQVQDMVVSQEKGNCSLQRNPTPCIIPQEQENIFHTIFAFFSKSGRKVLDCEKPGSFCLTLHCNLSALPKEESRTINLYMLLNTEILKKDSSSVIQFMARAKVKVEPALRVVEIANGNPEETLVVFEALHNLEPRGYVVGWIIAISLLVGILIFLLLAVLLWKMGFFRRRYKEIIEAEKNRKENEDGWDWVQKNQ
Chain of α9β1 integrin on mouse RAW macrophage cells (mouse) (P09055 21-798, chain 2 of 2, further chain): as the sequence (P09055 21-798, chain 2 of 2, further chain) above

“OPN-RRAA (OPN-R in which the RGD sequence has been mutated to RAA) (ligand)”: the PGE2 secretion in RAW cells in experiment [1] and in experiment [2] was 4.2 fold throughout.
